Consider 2 molecules from publication PMC3085965 (Archives of biochemistry and biophysics, 2011).

This test addresses Thrombospondin-1 (human, purified from platelets) (human, UniProt P07996 19-1170, 125I label (where used as 125I-TSP1)). The test is described as follows: radioligand binding.

Thrombospondin-1 (human, purified from platelets), sequence (P07996 19-1170): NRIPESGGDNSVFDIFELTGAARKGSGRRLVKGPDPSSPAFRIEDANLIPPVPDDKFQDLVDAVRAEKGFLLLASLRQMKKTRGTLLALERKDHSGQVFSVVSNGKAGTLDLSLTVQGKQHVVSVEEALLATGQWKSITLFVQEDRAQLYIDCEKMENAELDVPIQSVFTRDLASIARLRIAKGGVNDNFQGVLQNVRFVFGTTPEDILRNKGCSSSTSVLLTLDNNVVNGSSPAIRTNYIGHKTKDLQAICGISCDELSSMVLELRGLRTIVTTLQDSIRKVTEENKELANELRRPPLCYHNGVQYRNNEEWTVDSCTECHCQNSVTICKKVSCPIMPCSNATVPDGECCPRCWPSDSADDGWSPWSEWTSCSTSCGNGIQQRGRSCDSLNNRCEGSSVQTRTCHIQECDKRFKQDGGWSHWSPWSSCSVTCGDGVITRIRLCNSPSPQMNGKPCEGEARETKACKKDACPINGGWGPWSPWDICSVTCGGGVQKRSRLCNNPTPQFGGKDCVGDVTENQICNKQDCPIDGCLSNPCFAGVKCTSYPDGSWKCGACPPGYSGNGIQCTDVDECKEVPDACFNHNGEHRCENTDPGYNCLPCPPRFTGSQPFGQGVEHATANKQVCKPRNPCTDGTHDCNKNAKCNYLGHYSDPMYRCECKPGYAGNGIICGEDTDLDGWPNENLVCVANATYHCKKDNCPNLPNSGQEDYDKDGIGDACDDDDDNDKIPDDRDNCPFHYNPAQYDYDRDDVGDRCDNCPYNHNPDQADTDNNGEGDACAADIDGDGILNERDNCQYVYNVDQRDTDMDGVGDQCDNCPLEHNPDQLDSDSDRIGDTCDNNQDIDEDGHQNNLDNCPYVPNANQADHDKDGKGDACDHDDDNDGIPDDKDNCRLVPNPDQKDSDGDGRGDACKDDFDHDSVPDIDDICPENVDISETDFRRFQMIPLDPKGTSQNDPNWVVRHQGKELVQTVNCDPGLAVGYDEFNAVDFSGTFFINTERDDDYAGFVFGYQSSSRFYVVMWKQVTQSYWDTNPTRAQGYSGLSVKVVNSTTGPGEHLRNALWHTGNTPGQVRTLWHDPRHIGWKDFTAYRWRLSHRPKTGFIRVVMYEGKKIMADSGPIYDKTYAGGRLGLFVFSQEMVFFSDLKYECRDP

B1: full-length recombinant human sFRP-1 (natural protein, UniProt Q8N474 32-314, looked up)
chain: SEYDYVSFQSDIGPYQSGRFYTKPPQCVDIPADLRLCHNVGYKKMVLPNLLEHETMAEVKQQASSWVPLLNKNCHAGTQVFLCSLFAPVCLDRPIYPCRWLCEAVRDSCEPVMQFFGFYWPEMLKCDKFPEGDVCIAMTPPNATEASKPQGTTVCPPCDNELKSEAIIEHLCASEFALRMKIKEVKKENGDKKIVPKKKKPLKLGPIKKKDLKKLVLYLKNGADCPCHQLDNLSHHFLIMGRKVKSQYLLTAIHKWDKKNKEFKNFMKKMKNHECPTFQSVFK
For orientation: Kd means a measure of binding affinity in units of concentration. As to B1, the Kd was found to be 48 nM.

B2: full-length recombinant human sFRP-2 (natural protein, UniProt Q96HF1 25-295, looked up)
chain: LFLFGQPDFSYKRSNCKPIPANLQLCHGIEYQNMRLPNLLGHETMKEVLEQAGAWIPLVMKQCHPDTKKFLCSLFAPVCLDDLDETIQPCHSLCVQVKDRCAPVMSAFGFPWPDMLECDRFPQDNDLCIPLASSDHLLPATEEAPKVCEACKNKNDDDNDIMETLCKNDFALKIKVKEITYINRDTKIILETKSKTIYKLNGVSERDLKKSVLWLKDSLQCTCEEMNDINAPYLVMGQKQGGELVITSVKRWQKGQREFKRISRSIRKLQC
With B2, the dissociation constant (Kd) came to 95 nM.
